This is an account of results in patent US20240352130A1 (CHILDREN S HOSPITAL OF PHILADELPHIA, published 2024).

Where a chain is given by its changes, count along the chain named. Like-named read-outs stand apart in the source and are kept apart here.

By Kd is commonly meant the constant that tells how readily two partners part at equilibrium. A low value points to tighter binding. For orientation: koff means the rate constant with which the complex falls apart. Low readings indicate a long-lived complex, high ones a short-lived complex.

In assay [1] the target is T1, PHOX2B (43-51) A*24:02 MHC complex (human).
T1 construct: also called PHOX2B (43-51) complex; PHOX2B target pMHC
Nature of the assay: BLI (BLItz), biotinylated scFv on streptavidin sensor, soluble pMHC 200 nM.
Procedure: (§1) Binding kinetics. Affinity measurements were performed using a BLItz™ system (ForteBio, USA) and analyzed using the BLItz Pro™ software.

The target of assay [2] is T1, PHOX2B (43-51) A*24:02 MHC complex. Briefly: BLI (BLItz), biotinylated scFv on a streptavidin sensor, soluble pMHC in solution.
Procedure: as §1
Assay [3] concerns the target T2, … HLA-A*24:02 complex (human).
T2 construct: also called Unrelated peptide 2
Briefly: bead-based steady-state binding assay (FIG. 3A).
Procedure: (§2) Steady-state binding assay. An equilibrium binding assay to target pMHCs was also established using MyOne Streptavidin C1 Dynabeads. Briefly, 50 micrograms of Streptavidin C1 Dynabeads were incubated with excess biotinylated scFv before being blocked with free biotin and washed in PBS. […] Binding was normalized to beads without scFv and with unrelated control MHC complex.

In assay [4] the target is T3, … HLA-A*24:02 complex (human).
T3 construct: also called Unrelated peptide 3
Nature of the assay: bead-based steady-state binding assay (FIG. 3A).
Procedure: as §2

For assay [5], the target named is T4, … HLA-A*24:02 complex (human).
T4 construct: also called Unrelated peptide 1
Briefly: bead-based steady-state binding assay (FIG. 3A).
Procedure: as §2

In assay [6] the target is T5, … HLA-A*24:02 complex (human).
T5 construct: also called Unrelated peptide 4
Nature of the assay: bead-based steady-state binding assay (FIG. 3A).
Procedure: as §2

Assay [7] concerns the target T1, PHOX2B (43-51) A*24:02 MHC complex. Briefly: BLI (BLItz), biotinylated scFv on streptavidin sensor, soluble pMHC 200 nM. This is another data set of the same source.
Procedure: as §1
The target in assay [8] is T2, … HLA-A*24:02 complex. Nature of the assay: bead-based binding, scFv on streptavidin beads, fluorescent pMHC.
Assay [9] addresses T3, … HLA-A*24:02 complex. The assay is described as above.
Assay [10] concerns the target T4, … HLA-A*24:02 complex. The assay is described as above.
In assay [11] the target is T5, … HLA-A*24:02 complex. Described as above.
The target in assay [12] is T1, PHOX2B (43-51) A*24:02 MHC complex. Briefly: BLI (BLItz), biotinylated scFv on streptavidin sensor, soluble pMHC 200 nM. The source holds these as a separate data set.
Procedure: as §1
Assay [13] has as its target T2, … HLA-A*24:02 complex. Briefly: bead-based binding, scFv on streptavidin beads, fluorescent pMHC. The source holds these as a separate data set.
The target in assay [14] is T3, … HLA-A*24:02 complex. The description is as above. The source holds these as a separate data set.
Assay [15] concerns the target T4, … HLA-A*24:02 complex. The assay is described as above. This is another data set of the same source.
Assay [16] deals with T5, … HLA-A*24:02 complex. Described as above. The source holds these as a separate data set.
For assay [17], the target named is T2, … HLA-A*24:02 complex. Described as above. This is another data set of the same source.
In assay [18] the target is T3, … HLA-A*24:02 complex. The description is as above. This is another data set of the same source.
For assay [19], the target named is T4, … HLA-A*24:02 complex. The assay is described as above. This is another data set of the same source.
For assay [20], the target named is T5, … HLA-A*24:02 complex. Described as above. This is another data set of the same source.
The target of assay [21] is T1, PHOX2B (43-51) A*24:02 MHC complex. Nature of the assay: BLI (BLItz), biotinylated scFv on streptavidin sensor, soluble pMHC 200 nM. The source holds these as a separate data set.
Procedure: as §1

B1: Clone 10 (RU141-10) scFv (scFv)
scFv: SRNGGDGQSVLTQPPSVSVSPGQTASITCSGDSLGNKYACWYQQKPGQSPVLVIYQDSKRPSGIPERFSGSNSGNTATLTISGTQAMDEADYYCQAWDSSRGYTVVFGTGTKVTVSSQTGGSGGGGSGGGGSGGGGSEVQLLESGGGLVQPGGSLRLSCAASGFTFDSYAMSWVRQAPGKGLEWVSAISGYGGSTYYADSVKGRFTISRDNSKNTLYLQMNSLRAEDTAVYYCAKYTYFLDAFDIWGQGTMVTVSSS
B1 returned a Kd in [1] of 10 nM. In addition, the off-rate constant (koff) in [2] came out at 0.00076 s⁻¹. Moreover, the binding result with … HLA-A*24:02 complex [3], in the assay with … HLA-A*24:02 complex [4], with … HLA-A*24:02 complex [5] and with … HLA-A*24:02 complex [6] was “no binding (tested: 3.5 nM pMHC)” in each case.

B2: Clone 9 (RU-201-9) scFv (scFv)
scFv: SRNGGDGQSVLTQPPSVSVSPGQTASITCSGDSLGYKYACWYQQKPGQSPVLVIYQDSKRPSGIPERFSGSNSGNTATLTISGTQAMDEADYYCQAWDSLGVNTVVFGTGTKVTVSSQTGGSGGGGSGGGGSGGGGSEVQLLESGGGLVQPGGSLRLSCAASGFTFNYYAMSWVRQAPGKGLEWVSAISGYGGSTYYADSVKGRFTISRDNSKNTLYLQMNSLRAEDTAVYYCAKASEAYSAFDIWGQGTMVTVSSS
Turning to B2, in [7], the Kd turned out to be 100 nM. The binding result with … HLA-A*24:02 complex [8], in the assay with … HLA-A*24:02 complex [9], with … HLA-A*24:02 complex [10] and in the assay with … HLA-A*24:02 complex [11] was “no binding (tested: 3.5 nM)” throughout.

B3: Clone 1114 (RU201-1114) scFv (scFv)
scFv: B2 scFv with S33K, Y36D, L100I, V102N, N103M, N167D, A239Y, Y240T, S241N, T250I
Consider B3, for which the Kd in assay [12] was found to be 270 nM. For the same molecule, the binding result with … HLA-A*24:02 complex [13], in the assay with … HLA-A*24:02 complex [14], with … HLA-A*24:02 complex [15] and with … HLA-A*24:02 complex [16] was “no binding (tested: 3.5 nM)” each time.

B4: Clone 1113 (RU-201-1113) scFv (scFv)
scFv: SRNGGDGQSVLTQPPSVSAAPGQKVTISCSGSSSNIGNNYVSWYQQLPGTAPKLLIYDNNKRPSGIPDRFSGSKSGTSATLGITGLQTGDEADYYCGTWDHMGRNTVVFGTGTKVTVSSQTGGSGGGGSGGGGSGGGGSEVQLLESGGGLVQPGGSLRLSCAASGFTFSDYAMSWVRQAPGKGLEWVSAISGTGGSTYYADSVKGRFTISRDNSKNTLYLQMNSLRAEDTAVYYCAKEFSVVNSAAFDIWGQGTMVTVSSS
For the molecule B4, the binding result with … HLA-A*24:02 complex [17], in the assay with … HLA-A*24:02 complex [18], with … HLA-A*24:02 complex [19] and with … HLA-A*24:02 complex [20] was “no binding (tested: 3.5 nM)” each time. Also, the affinity in [21], expressed as Kd, was 9 nM.
